Molecular target: T1, Danio rerio CPAP G-box domain (DrCPAP_(G-box), amino acids 943–1121) (Danio rerio, UniProt E7FCY1 943-1121)
T1 sequence (looked up): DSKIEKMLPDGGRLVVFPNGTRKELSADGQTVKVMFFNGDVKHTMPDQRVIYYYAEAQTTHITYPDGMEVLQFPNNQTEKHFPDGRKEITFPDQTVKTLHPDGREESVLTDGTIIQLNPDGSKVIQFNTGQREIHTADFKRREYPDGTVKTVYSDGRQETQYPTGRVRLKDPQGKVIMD
Experiment: ITC

B1: C. elegans SAS-5 fragment corresponding to amino acids 2–122 (SAS-5N) (domain or fragment, UniProt Q20010 2-122, looked up)
chain: NNYDDLPCSIYFKKPTVQEFVDQPRVFEDSEVPAFQEVLQLPQERTKPPVPSTQPIVAAVEVAKKKSCLSAPKPRKEPPSHPALRQKTVAFGKTVNVSQTVEGTSRNSKKVLASTMSAQNT
Work on B1 yielded a Kd of 34 ± 4 µM.
